Consider two molecules from patent publication US20140087995A1 (published 2014).

For assay [1], the target named is T1, rat amylin receptor (rat calcitonin receptor + rat RAMP 3) (rat, UniProt P32214 25-516; Q9JJ73 23-147).
T1 construct: whole, on cells; Membranes of BHK tk'ts 13 cells transiently transfected with the rat calcitonin receptor and rat RAMP 3; also called rAmylin-R; rat amylin 3(a) receptor
T1 sequence (looked up) 1: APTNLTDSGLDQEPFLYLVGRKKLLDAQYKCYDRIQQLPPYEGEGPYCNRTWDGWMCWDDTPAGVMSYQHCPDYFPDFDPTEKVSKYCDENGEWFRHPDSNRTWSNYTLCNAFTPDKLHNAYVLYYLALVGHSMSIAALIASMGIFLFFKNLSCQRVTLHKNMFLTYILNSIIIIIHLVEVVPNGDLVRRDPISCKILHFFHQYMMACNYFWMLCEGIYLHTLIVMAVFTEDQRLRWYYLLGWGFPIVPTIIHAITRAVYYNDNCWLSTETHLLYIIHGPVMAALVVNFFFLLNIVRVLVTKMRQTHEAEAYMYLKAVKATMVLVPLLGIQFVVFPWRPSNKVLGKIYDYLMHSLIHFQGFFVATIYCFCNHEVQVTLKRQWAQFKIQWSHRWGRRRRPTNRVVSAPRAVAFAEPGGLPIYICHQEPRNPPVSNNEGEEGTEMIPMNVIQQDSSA
T1 sequence (looked up) 2: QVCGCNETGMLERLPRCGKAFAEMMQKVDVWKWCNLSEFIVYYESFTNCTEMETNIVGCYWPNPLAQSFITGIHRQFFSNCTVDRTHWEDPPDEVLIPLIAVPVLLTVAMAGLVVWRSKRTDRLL
Kind of assay: SPA competition vs 125I-rat amylin, membranes with rat CTR + rat RAMP3 (Assay VI).

Assay [2] concerns the target T2, rat calcitonin receptor (rat, UniProt P32214 25-516).
T2 construct: whole, on cells; Membranes of BHK tk'ts 13 cells transiently transfected with the rat calcitonin receptor; also called rCTR; rat calcitonin (a) receptor
T2 sequence (looked up): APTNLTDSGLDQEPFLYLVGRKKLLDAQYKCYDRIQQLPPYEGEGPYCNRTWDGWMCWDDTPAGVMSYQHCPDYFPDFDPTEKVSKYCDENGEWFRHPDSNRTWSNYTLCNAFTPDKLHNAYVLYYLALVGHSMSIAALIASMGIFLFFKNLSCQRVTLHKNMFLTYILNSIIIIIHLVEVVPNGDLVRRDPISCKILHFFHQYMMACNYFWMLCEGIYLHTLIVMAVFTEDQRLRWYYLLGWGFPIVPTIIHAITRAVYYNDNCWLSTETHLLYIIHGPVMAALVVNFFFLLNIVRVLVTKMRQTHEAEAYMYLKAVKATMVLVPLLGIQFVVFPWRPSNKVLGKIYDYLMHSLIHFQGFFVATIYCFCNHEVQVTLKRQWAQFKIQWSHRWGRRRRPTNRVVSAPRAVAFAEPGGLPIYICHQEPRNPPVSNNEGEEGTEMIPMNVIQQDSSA
Briefly: SPA competition vs 125I-calcitonin, membranes with rat CTR (Assay VIII).

Assay [3] has as its target T2, rat calcitonin receptor. Kind of assay: IC50 at rCTR divided by IC50 at rAmylin-R (reference).
Assay [4] concerns the target T3, human calcitonin receptor (human, UniProt P30988 25-474).
T3 construct: whole, on cells; Membranes of a BHK tk'ts 13 cell line stably transfected with the human calcitonin receptor; also called hCTR; hCT
T3 sequence (looked up): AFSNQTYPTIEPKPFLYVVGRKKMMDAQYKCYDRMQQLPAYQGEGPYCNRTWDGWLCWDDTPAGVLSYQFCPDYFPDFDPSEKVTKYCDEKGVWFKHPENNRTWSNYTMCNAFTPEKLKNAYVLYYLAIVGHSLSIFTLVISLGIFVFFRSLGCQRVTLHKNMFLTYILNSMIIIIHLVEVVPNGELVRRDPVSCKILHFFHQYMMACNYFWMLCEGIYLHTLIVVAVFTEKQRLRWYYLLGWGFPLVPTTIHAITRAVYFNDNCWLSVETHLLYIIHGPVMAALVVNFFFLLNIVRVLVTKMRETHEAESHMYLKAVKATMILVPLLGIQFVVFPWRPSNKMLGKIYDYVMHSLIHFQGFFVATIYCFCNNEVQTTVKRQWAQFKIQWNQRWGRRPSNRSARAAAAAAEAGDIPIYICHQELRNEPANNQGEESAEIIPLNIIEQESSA
Kind of assay: IC50 at hCTR divided by IC50 at hAmylin-R (reference). Put shortly: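 Membranes (35 ng/μL final) + SPA beads, 50 mM Hepes pH 7.4 buffer with 1 mM CaCl2, 5 mM MgCl₂, 0.1% OA, 0.02% Tween20; 120 min, 25° C, shaking; centrifuged, counted; IC₅₀ by one-site binding competition.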

Numbered stars: 1 amine (or outer) side, 2 acyl side, 3 side chain; on linkers, the order of the positions; unused ones are H or OH. Bridge positions count the residues as written; N and C are the ends. Side chains are listed from the residue outwards. Ends that are not written are not given here. * marks the point of attachment. C20 diacid = O=C(O)CCCCCCCCCCCCCCCCCCC(=O)*; γGlu = O=C(O)[C@H](CCC(=O)[*:2])N[*:1]

B1: N^ε1-[(4S)-4-carboxy-4-(19-carboxynonadecanoylamino)butanoyl]-[Arg17,Pro21,Pro27,Lys35]-h-amylin (peptide)
peptide: K([γGlu-C20 diacid])CNTATCATQRLANFLRHSSPNFGAIPSSTNVGSKTY-NH2
modifications: disulfide 2-7; N-terminus assumed
SMILES: CC[C@H](C)[C@H](NC(=O)[C@H](C)NC(=O)CNC(=O)[C@H](Cc1ccccc1)NC(=O)[C@H](CC(N)=O)NC(=O)[C@@H]1CCCN1C(=O)[C@H](CO)NC(=O)[C@H](CO)NC(=O)[C@H](Cc1c[nH]cn1)NC(=O)[C@H](CCCNC(=N)N)NC(=O)[C@H](CC(C)C)NC(=O)[C@H](Cc1ccccc1)NC(=O)[C@H](CC(N)=O)NC(=O)[C@H](C)NC(=O)[C@H](CC(C)C)NC(=O)[C@H](CCCNC(=N)N)NC(=O)[C@H](CCC(N)=O)NC(=O)[C@@H](NC(=O)[C@H](C)NC(=O)[C@@H]1CSSC[C@H](NC(=O)[C@@H](N)CCCCNC(=O)CC[C@H](NC(=O)CCCCCCCCCCCCCCCCCCC(=O)O)C(=O)O)C(=O)N[C@@H](CC(N)=O)C(=O)N[C@@H]([C@@H](C)O)C(=O)N[C@@H](C)C(=O)N[C@@H]([C@@H](C)O)C(=O)N1)[C@@H](C)O)C(=O)N1CCC[C@H]1C(=O)N[C@@H](CO)C(=O)N[C@@H](CO)C(=O)N[C@H](C(=O)N[C@@H](CC(N)=O)C(=O)N[C@H](C(=O)NCC(=O)N[C@@H](CO)C(=O)N[C@@H](CCCCN)C(=O)N[C@H](C(=O)N[C@@H](Cc1ccc(O)cc1)C(N)=O)[C@@H](C)O)C(C)C)[C@@H](C)O
notes: modifications are with respect to human amylin; also called compound 35
One may read the IC50 as the concentration needed to halve the response being measured. Take B1: the figures for the concentration for half-maximal inhibition (IC50) (in assay [1]; with rat calcitonin receptor [2]) were 0.948 nM and 61.7 nM, respectively. Moreover, in the assay with rat calcitonin receptor [3], the “Ratio rCT/rAmylin binding” value was 65.1. Moreover, in assay [4], the “Ratio hCT/hAmylin binding” value turned out to be 50.3.

B2: N^ε1-[(4S)-4-carboxy-4-[[(4S)-4-carboxy-4-(19-carboxynonadecanoylamino)butanoyl]amino]butanoyl]-[Asp14,Arg17,Pro21,Pro26,Asp35]-h-amylin (peptide)
peptide: K([γGlu-γGlu-C20 diacid])CNTATCATQRLADFLRHSSPNFGAPLSSTNVGSDTY-NH2
modifications: disulfide 2-7; N-terminus assumed
SMILES: CC(C)C[C@H](NC(=O)[C@H](CCCNC(=N)N)NC(=O)[C@H](CCC(N)=O)NC(=O)[C@@H](NC(=O)[C@H](C)NC(=O)[C@@H]1CSSC[C@H](NC(=O)[C@@H](N)CCCCNC(=O)CC[C@H](NC(=O)CC[C@H](NC(=O)CCCCCCCCCCCCCCCCCCC(=O)O)C(=O)O)C(=O)O)C(=O)N[C@@H](CC(N)=O)C(=O)N[C@@H]([C@@H](C)O)C(=O)N[C@@H](C)C(=O)N[C@@H]([C@@H](C)O)C(=O)N1)[C@@H](C)O)C(=O)N[C@@H](C)C(=O)N[C@@H](CC(=O)O)C(=O)N[C@@H](Cc1ccccc1)C(=O)N[C@@H](CC(C)C)C(=O)N[C@@H](CCCNC(=N)N)C(=O)N[C@@H](Cc1c[nH]cn1)C(=O)N[C@@H](CO)C(=O)N[C@@H](CO)C(=O)N1CCC[C@H]1C(=O)N[C@@H](CC(N)=O)C(=O)N[C@@H](Cc1ccccc1)C(=O)NCC(=O)N[C@@H](C)C(=O)N1CCC[C@H]1C(=O)N[C@@H](CC(C)C)C(=O)N[C@@H](CO)C(=O)N[C@@H](CO)C(=O)N[C@H](C(=O)N[C@@H](CC(N)=O)C(=O)N[C@H](C(=O)NCC(=O)N[C@@H](CO)C(=O)N[C@@H](CC(=O)O)C(=O)N[C@H](C(=O)N[C@@H](Cc1ccc(O)cc1)C(N)=O)[C@@H](C)O)C(C)C)[C@@H](C)O
notes: modifications are with respect to human amylin; also called compound 1
Consider B2, for which the results for the IC50 (in assay [1]; with rat calcitonin receptor [2]) were 1.3 nM and 135 nM, respectively. In addition, the “Ratio rCT/rAmylin binding” value in the assay with rat calcitonin receptor [3] was 104. For the same molecule, in assay [4], the “Ratio hCT/hAmylin binding” value turned out to be 27.6.
